Results published in patent CN118184778A.

Molecular target: 重组AD7c-NTP蛋白 (human)
Assay: indirect ELISA; plate coated with 1 μg/mL recombinant AD7c-NTP, antibody serially diluted, HRP goat anti-mouse IgG, OD450

Sequence of 重组AD7c-NTP蛋白 (human) (chain, as listed by the source): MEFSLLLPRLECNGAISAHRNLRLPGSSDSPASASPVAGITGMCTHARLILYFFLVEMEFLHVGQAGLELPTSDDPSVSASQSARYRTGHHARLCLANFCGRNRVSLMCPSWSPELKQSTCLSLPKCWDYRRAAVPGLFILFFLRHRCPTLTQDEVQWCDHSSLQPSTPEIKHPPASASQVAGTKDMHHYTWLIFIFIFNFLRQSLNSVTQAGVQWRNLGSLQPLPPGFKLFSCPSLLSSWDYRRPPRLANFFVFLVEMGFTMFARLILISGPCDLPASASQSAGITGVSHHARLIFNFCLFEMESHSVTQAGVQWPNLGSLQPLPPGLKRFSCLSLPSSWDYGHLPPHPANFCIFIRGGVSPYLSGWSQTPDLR

最小反应极限: 9.77 ng/mL
B1: 单克隆抗体1D9 (AD7c-NTP单克隆抗体A1) (antibody, V domains shown)
VH: DVQLQESGPGLVKPSQSLSLTCTVTDYSITSDYAWNWIRQFPGNKLEWMGYISYSGSTNYNPSLKSRFSITRDTSKNQFFLQLNSVTTEDTATYYCAGSELYYGYHYVMDYWGQGTSVTVSS
VL: ENVLTQSPAIMSASLGQKVTMTCSASSSVSSSYLHWYQQRSGASPKPLIHRTSNLASGVPARFSGSGSGTSYSLTISSVEAEDDATYYCQQWSGYPLTFGAGTKLELK
